What was measured:
[1] = cycloheximide chase, western blot, MDA-MB-231; settings: glycan lost; control: wild type
[2] = western blot with GSK3β and β-TrCP overexpression; settings: glycan lost; control: wild type (co-expressed)
[3] = PD-L1 IP, anti-K48 ubiquitin blot, with MG132; settings: glycan lost; control: MG132 without tunicamycin

## PD-L1 (programmed death ligand-1, B7-H1): N35/3NQ
[1]
  degradation_or_half_life, half_life: decreases

## PD-L1 (programmed death ligand-1, B7-H1): 4NQ
[1]
  degradation_or_half_life, half_life: decreases
[2]
  expression_or_secretion: decreases

## PD-L1 (programmed death ligand-1, B7-H1): N192Q
[1]
  degradation_or_half_life, half_life: decreases

## PD-L1 (programmed death ligand-1, B7-H1): N200Q
[1]
  degradation_or_half_life, half_life: decreases

## PD-L1 (programmed death ligand-1, B7-H1): N35Q
[1]
  degradation_or_half_life, half_life: no change

## PD-L1 (programmed death ligand-1, B7-H1): tunicamycin
[3]
  other: ubiquitination: increases

## PD-L1 (programmed death ligand-1, B7-H1): N219Q
[1]
  degradation_or_half_life, half_life: decreases
